Experimental data reported in paper PMC9851377.

Target: CD3 on T lymphocytes (human (endogenous in T lymphocytes from PBMCs)) (UniProt P07766)
Assay: FACS; dimer; binding to T lymphocytes

UniProt P07766, sequence (P07766 23-207): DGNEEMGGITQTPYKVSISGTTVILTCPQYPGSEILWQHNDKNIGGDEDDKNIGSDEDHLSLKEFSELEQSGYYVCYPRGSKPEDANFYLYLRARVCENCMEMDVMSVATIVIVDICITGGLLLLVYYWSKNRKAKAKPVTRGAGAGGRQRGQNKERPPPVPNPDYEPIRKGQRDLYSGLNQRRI

EC50: 0.17 µg/mL
Substance: dimeric γδ_(ECTO)-αCD3 (AJ8 TCR, 3(G4S) linker), purified dimer fraction (from UniProt Q99603)
